Results on one molecule are retold here after article PMC12122801 (Nature Communications, 2025).

This assay addresses Mycobacterium tuberculosis MmpL5 (Rv0676c) with a C-terminal 1×FLAG tag (Mycobacterium tuberculosis, UniProt P9WJV1). Nature of the assay: cryo-EM structure.

Mycobacterium tuberculosis MmpL5 (Rv0676c) with a C-terminal 1×FLAG tag, sequence (P9WJV1 whole entry): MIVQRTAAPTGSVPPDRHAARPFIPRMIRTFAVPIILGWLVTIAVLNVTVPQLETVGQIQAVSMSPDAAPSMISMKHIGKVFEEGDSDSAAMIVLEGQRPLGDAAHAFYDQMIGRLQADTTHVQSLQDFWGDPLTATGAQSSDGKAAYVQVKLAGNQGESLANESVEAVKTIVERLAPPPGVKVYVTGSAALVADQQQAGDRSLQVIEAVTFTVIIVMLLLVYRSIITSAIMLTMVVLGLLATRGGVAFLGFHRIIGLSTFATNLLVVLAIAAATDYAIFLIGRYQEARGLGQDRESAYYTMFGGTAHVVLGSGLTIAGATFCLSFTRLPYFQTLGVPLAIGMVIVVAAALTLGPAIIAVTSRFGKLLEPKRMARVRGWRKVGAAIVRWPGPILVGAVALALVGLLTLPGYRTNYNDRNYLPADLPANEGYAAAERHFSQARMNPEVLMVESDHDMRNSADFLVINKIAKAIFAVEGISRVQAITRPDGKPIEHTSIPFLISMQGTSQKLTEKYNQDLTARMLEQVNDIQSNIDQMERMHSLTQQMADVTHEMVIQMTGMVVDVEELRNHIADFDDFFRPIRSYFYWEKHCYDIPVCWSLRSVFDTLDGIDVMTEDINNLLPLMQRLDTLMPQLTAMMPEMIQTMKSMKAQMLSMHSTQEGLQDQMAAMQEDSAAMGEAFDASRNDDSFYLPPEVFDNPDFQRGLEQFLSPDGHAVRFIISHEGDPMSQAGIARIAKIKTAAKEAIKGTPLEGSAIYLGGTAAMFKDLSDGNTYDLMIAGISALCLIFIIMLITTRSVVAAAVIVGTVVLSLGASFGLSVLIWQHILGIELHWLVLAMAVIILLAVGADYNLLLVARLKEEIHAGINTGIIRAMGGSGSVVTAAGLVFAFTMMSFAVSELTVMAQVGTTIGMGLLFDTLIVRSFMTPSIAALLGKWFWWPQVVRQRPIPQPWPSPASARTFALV

B1: Mycobacterium smegmatis acyl carrier protein AcpM (MSMEG_4326) (natural protein)
chain: MAATQEEIIAGLAEIIEEVTGIEPSEVTPEKSFVDDLDIDSLSMVEIAVQTEDKYGVKIPDEDLAGLRTVGDVVAYIQKLEEENPEAAAALREKFAADQ
modifications: 4'-phosphopantetheine (Ppant) covalently attached to Ser41 via a phosphodiester (holo-form)
As for B1, the binding result is listed as “binds”.
